# Experimental data from patent publication US20220396624A1 (HC BIOPHARMA SHANGHAI, published 2022).
# Tests used:
# [1] = molecular target: T1, human PD-L1 on 293T-h-PDL1 cells (human, UniProt Q9NZQ7 19-238); assay: FACS, purified antibody on 293T-h-PDL1 cells
# Method: (§1) Then 100 μl of flow cytometry buffer was added to each flow cytometry tube and resuspension was performed. […] Then 1 ml of flow cytometry buffer was added and centrifuged at 1200 rpm for 5 minutes at room temperature, the supernatant was discarded and the washing was repeated three times. 250 μl of flow cytometry buffer was added to each flow cytometry tube again, the pellet was resuspended and mixed. The resulting samples was detected by the machine.
# Control tube 1 (no antibody and secondary antibody, only cell suspension was added) and control tube 2 (no antibody, only cell suspension and secondary antibody was added) were set.
# [2] = molecular target: T1, human PD-L1 on 293T-h-PDL1 cells; assay: FACS, hybridoma culture supernatant on 293T-h-PDL1 cells
# Method: 1 ml of flow cytometry buffer was added to each flow cytometry tube and centrifuged at 1200 rpm for 5 minutes. The supernatant was discarded and the washing was repeated three times. At the same time, both control tube 1 (no culture supernatant and secondary antibody below, only the cell suspension was added) and control tube 2 (no culture supernatant, only cell suspension and secondary antibody below were added) were set.
# as §1
# [3] = molecular target: T2, fusion protein of the extracellular region of human PD-L1 and human IgG1-FC (human, UniProt Q9NZQ7 19-238); assay: FACS blocking of PD-L1-hFc binding to 293T-h-PD1 cells, purified antibody
# T2 construct: PD-L1 is put first by convention; also called fusion protein PD-L1 (hFC tag)
# T2 sequence (Q9NZQ7 19-238): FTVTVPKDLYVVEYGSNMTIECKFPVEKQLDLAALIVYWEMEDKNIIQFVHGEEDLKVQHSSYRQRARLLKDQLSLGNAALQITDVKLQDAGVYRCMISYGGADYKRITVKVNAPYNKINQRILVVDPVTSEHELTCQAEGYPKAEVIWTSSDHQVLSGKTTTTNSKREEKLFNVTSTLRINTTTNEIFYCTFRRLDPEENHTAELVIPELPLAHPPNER
# Method: (§2) Each well was then washed twice by adding 400 μl FACS buffer, PE anti-human IgG Fc secondary antibody was added and incubated for 1 hour, after which each well was washed twice by adding 400 μl FACS buffer. Detection was performed.
# [4] = molecular target: T2, fusion protein of the extracellular …; assay: FACS blocking of PD-L1-hFc binding to 293T-h-PD1 cells, hybridoma supernatant
# Method: as §2
# [5] = molecular target: T3, extracellular region of human PD-L1 protein (positions 19-238 of SEQ ID NO: 3) (human, UniProt Q9NZQ7 19-238); assay: ForteBio Octet (BLI), antibody immobilized, PD-L1 ECD 6.25-200 nM; culture supernatant
# T3 construct: also called Human PD-L1-his; antigen PD-L1
# T3 sequence (Q9NZQ7 19-238): as above
# Method: (§3) A 96-well plate was obtained, and 200 μl SD buffer (1×PBS+0.02% Tween20+0.1% BSA) was added to each well, the plate was placed in ForteBio Octet and pre-circulated.
# [6] = molecular target: T3, extracellular region of human PD-L1 …; assay: ForteBio Octet (BLI), antibody immobilized, PD-L1 ECD 6.25-200 nM; antibody after purification
# Method: as §3
# The antibody was immobilized and the concentration of the antibody after supernatant purification was 10 μg/ml.
# [7] = molecular target: T3, extracellular region of human PD-L1 …; assay: ForteBio Octet (BLI), antibody 20 nM, PD-L1 ECD from 30 nM in 3-fold dilutions
# Method: The murine antibody, chimeric antibody and humanized antibody of the present invention were dissolved in PBS to obtain 20 nM solutions.
# The affinities of the antibody-antigen were determined using the ForteBio Octet as an affinity detection instrument.
# T1 sequence (Q9NZQ7 19-238): as above
binder,measurement,setting,value
"murine antibody 13C9 (A3) (antibody, V domains shown, Mouse hybridoma antibody (subclone 13C9-1), tested as culture supernatant or purified; Only variable domains printed (the VL as printed ends in RA); also called 13C9-1) VH: QVQLKQSGAGLVKPGASVKLSCKASGYIFTEYIIHWVKQRSGQGLEWIGWFYPGSDNIKYNEKFKDKATLTADKSSSTVYMELSRLTSEDSAVYFCARHETGYFFDYWGQGTTLTVSS VL: DIVITQSPAIMSASPGEKVTMTCSASSSVSKMNWYQQKSGTSPKRWIYDTSKLASGVPSRFSGSGSGTSYSLTISSMEAEDAATYYCQQWSSNPLTFGSGTKLELKR",EC50,[1],0.49 µg/mL
same,EC50,[2],0.44 µg/mL
same,IC50,[3],2.38 µg/mL
same,IC50,[4],1.95 µg/mL
same,Kd,[5],0.00181 nM
same,koff,[5],6.32e-07 s⁻¹
same,Kd,[6],2.78 nM
same,koff,[6],0.00117 s⁻¹
"murine antibody 18B4 (A4) (antibody, V domains shown, Mouse hybridoma antibody (subclone 18B4-2); Only variable domains printed; also called 18B4-2) VH: QVQLKQSGPELEKPGASVKISCKASGYSFTGYNMNWVKQSNGKSLEWIGNIDPYYGVTHYNQKFKGKATLTVDESSSTASMQLKSLTSEDSAIYYCARGIPFYGLDYWGQGTSVTVSS VL: QIVLTQSPAIMSASPGEKVTMTCGASSSVSFMHWYQQKSGTSPKRWIYDTSKLASGVPARFSGSGSGTSYSLTISSMEAEDAATYYCQQWNTNPFTFGSGTKLEIKR",EC50,[2],0.125 µg/mL
same,Kd,[5],0.586 nM
same,koff,[5],0.000662 s⁻¹
same,Kd,[6],936 nM
same,koff,[6],0.191 s⁻¹
"chimeric antibody 13C9-1(chi) (antibody, V domains shown, Chimeric antibody of murine 13C9) VH: QVQLKQSGAGLVKPGASVKLSCKASGYIFTEYIIHWVKQRSGQGLEWIGWFYPGSDNIKYNEKFKDKATLTADKSSSTVYMELSRLTSEDSAVYFCARHETGYFFDYWGQGTTLTVSS VL: DIVITQSPAIMSASPGEKVTMTCSASSSVSKMNWYQQKSGTSPKRWIYDTSKLASGVPSRFSGSGSGTSYSLTISSMEAEDAATYYCQQWSSNPLTFGSGTKLELKR",EC50,[1],1.42 µg/mL
same,IC50,[3],2.47 µg/mL
"murine antibody 6G5 (A12) (antibody, V domains shown, Mouse hybridoma antibody (subclone 6G5-2); Only variable domains printed; the printed VL is identical to that of 13C9; also called 6G5-2) VH: QVQLKQSGAELVRPGTSVKMSCKATEYTFTNNWIAWVKQRPGHGLEWIGDIHPGGGYTNYNEKFKGKATLTADTSSSTAYMQLSSLTSEDSAIYYCAGSKTRDYDSWFAYWGQGTLVTVSA VL: DIVITQSPAIMSASPGEKVTMTCSASSSVSKMNWYQQKSGTSPKRWIYDTSKLASGVPSRFSGSGSGTSYSLTISSMEAEDAATYYCQQWSSNPLTFGSGTKLELKR",Kd,[5],0.111 nM
same,koff,[5],7.94e-05 s⁻¹
same,Kd,[6],1.07 nM
same,koff,[6],0.000838 s⁻¹
"murine antibody 14A7 (A1) (antibody, V domains shown, Mouse hybridoma antibody (subclone 14A7-4), tested as culture supernatant or purified from it; Only the variable domains are printed; also called 14A7-4) VH: QVQLKQSGAELVRPGTSVKMSCKATEYTFTNNWIAWVKQRPGHGLEWVGDIHPGGGFTNYNEKFKVKATLTADTSSSTAYMQLRSLTSEDSAIYYCAGSKTRDYDAWFAYWGQGTLVTVSA VL: DIVMTQAPSSLAVSVGEKVTLNCKSSQSLLYTGNQKNYLAWYQQKPGQSPKLLIYWASTRESGVPDRFTGSGSGTDFTLTISNVKAEDLAVYFCQQYYTYRTFGGGTKLEIK",EC50,[1],0.8 µg/mL
same,EC50,[2],0.538 µg/mL
same,IC50,[3],2.27 µg/mL
same,IC50,[4],2.31 µg/mL
same,Kd,[7],0.545 nM
same,koff,[7],0.000359 s⁻¹
same,Kd,[5],0.0557 nM
same,koff,[5],2.78e-05 s⁻¹
same,Kd,[6],0.882 nM
same,koff,[6],0.000647 s⁻¹
"chimeric antibody 14A7(chi) (antibody, V domains shown, also called 14A7-4(chi)) VH: QVQLKQSGAELVRPGTSVKMSCKATEYTFTNNWIAWVKQRPGHGLEWVGDIHPGGGFTNYNEKFKVKATLTADTSSSTAYMQLRSLTSEDSAIYYCAGSKTRDYDAWFAYWGQGTLVTVSA VL: DIVMTQAPSSLAVSVGEKVTLNCKSSQSLLYTGNQKNYLAWYQQKPGQSPKLLIYWASTRESGVPDRFTGSGSGTDFTLTISNVKAEDLAVYFCQQYYTYRTFGGGTKLEIKR",EC50,[1],1.32 µg/mL
same,IC50,[3],5.66 µg/mL
same,Kd,[7],4.56 nM
same,koff,[7],0.00173 s⁻¹
"humanized antibody 14A7(hz) (antibody, V domains shown, also called 14A7-4(hz)) VH: QVQLVQSGAEVKKPGASVKVSCKASEYTFTNNWIAWVRQAPGQGLEWVGDIHPGGGFTNYNEKFKVRATLTADTSTSTAYMELSSLRSEDTAVYYCAGSKTRDYDAWFAYWGQGTTVTVSS VL: DIQMTQSPSTLSASVGDRVTITCKSSQSLLYTGNQKNYLAWYQQKPGKAPKLLIYWASTRESGVPSRFSGSGSGTEFTLTISSLQPDDFATYYCQQYYTYRTFGQGTKVEIKR",EC50,[1],0.77 µg/mL
same,IC50,[3],1.95 µg/mL
same,Kd,[7],0.884 nM
same,koff,[7],0.000358 s⁻¹
"murine antibody 15G10 (A2) (antibody, V domains shown, Mouse hybridoma antibody (subclone 15G10-3), tested as culture supernatant; Only variable domains printed; also called 15G10-3) VH: QVQLKQSGPELVKPGASVKTSCKASGYTFTNYVVHWVKQNPGQGLEWIGYVNPNNDGTIFNEKFKDKAILTSDKSSSTAYMELSSLTSEDSAVYYCARSPFAHWGQGTLVTVSA VL: QIVLTQSPASLTVSLGQRATISCSASESVDFYGTSLMQWFQQKPGQPPKLLVYTASNVDSEVPARFSGSGSGTDFSLNIHPVEEDDIAMYFCHQTRKVPYTFGGGTKLEIK",EC50,[2],1.45 µg/mL
same,IC50,[4],4 µg/mL
"murine antibody 8A2 (A8) (antibody, V domains shown, Mouse hybridoma antibody (subclone 8A2-2); Only variable domains printed; also called 8A2-2) VH: QVQLKQSGPGLVAPSQSLSITCTVSGFSLTGYGVNWVRQPPGKGLEWLGKIWGDGITDYNSALKSRLSISKDNSKSQVFLKMNSLQTDDTARYYCARDVMDYWGQGTSVTVSS VL: QIVLTQSPAIMSASPGEKVTMTCSASSSISYMHWYQQKPGTSPKRWIYDTSKLASGVPARFSGSESGTSYSLTISSMEAEDAATYYCHHRSPYPTFGAGTKLELK",EC50,[2],0.336 µg/mL
same,IC50,[4],5.17 µg/mL
same,Kd,[5],2.04 nM
same,koff,[5],0.00034 s⁻¹
same,Kd,[6],4200 nM
same,koff,[6],0.137 s⁻¹
"murine antibody 10A3 (A11) (antibody, V domains shown, Mouse hybridoma antibody (subclone 10A3-3); Only variable domains printed; also called 10A3-3) VH: QVQLKQSGPGLVAPSQSLSITCTVSGFSLTGYGVNWVRQPPGKGLEWLGKIWGDGITDYNSALKSRLSISKDNSKSQVFLKMNSLQTEDTARYYCARDVMDYWGQGTSVTVSS VL: QIVLTQSPAIMSASPGEKVTMTCSASSSINYMHWFQQKPGTSPKRWIYDTSKLASGVPARFSGSESGTSYSLTISSMEAEDAATYYCHHRSPYPTFGAGTKLELKR",Kd,[5],0.34 nM
same,koff,[5],5.15e-05 s⁻¹
same,Kd,[6],906 nM
same,koff,[6],0.0296 s⁻¹
"murine antibody 2E5 (A10) (antibody, V domains shown, Mouse hybridoma antibody (subclone 2E5-9); Only variable domains printed; also called 2E5-9) VH: QVQLKQSGPGLVAPSQSLSITCTVSGFSLTGYGVNWVRQPPGKGLEWLGKIWGDGITDYNSALKSRLSISKDNSKSQVFLKMNSLQTEDTARYYCARDVMDYWGQGTSVTVSS VL: DVLMTQIPLSLPVSLGDQASISCRSSQSIEQSNGNTYLEWYLQKPGQSPKVLIYKVSNRFSGVPDRFSGSGSGTDFTLKISRVESEDLGVYYCFQGSHVPYTFGGGTKLEIK",Kd,[5],0.175 nM
same,koff,[5],5.61e-05 s⁻¹
same,Kd,[6],15 nM
same,koff,[6],0.00376 s⁻¹
"murine antibody 7E5 (A9) (antibody, V domains shown, Mouse hybridoma antibody (subclone 7E5-2); Only variable domains printed; also called 7E5-2) VH: QVQLKQSGPGLVAPSQSLSITCTVSGFSLTGYGVNWVRQPPGKGLEWLGKIWGDGSTDYTSALKSRLSISKDNSKSQVFLKVNSLQTDDTARYYCARDVMDYWGQGTSVTVSS VL: QIVLTQSPAIMSASPGEKVTMTCSASSSISYMHWFQQKPGTSPKRWIYDTSKLASGVPARFSGSESGTSYSLTISSMEAEDAATYYCHQRSPYPTFGAGTKLELK",Kd,[5],0.498 nM
same,koff,[5],0.000172 s⁻¹
same,Kd,[6],3930 nM
same,koff,[6],0.11 s⁻¹
"murine antibody 28B1 (A5), subclone 28B1-2 (antibody, V domains shown, Mouse hybridoma antibody; Only variable domains printed) VH: QVQLKQSGAELVKPGASVMLSCTASAFNIDDTYIHWVKQRPEQGLEWIGRIDPANGNTDYDPECQGKATITTDMSSNTAYLQLSSLTSEDTAVYFCARGLRLPGLVYWGRGTLVTVSA VL: DIQMTQTTSSLSASLGDRVTISCRASQDISNYLNWYQQKPDGTVKLLIYYTSILYSGVPSRFSGSGSGTDYSLTINTLEEEDIATYFCQQGNTLPWTFGGGTKLEIIR",EC50,[2],0.39 µg/mL
same,IC50,[4],2.31 µg/mL
same,Kd,[5],0.00924 nM
same,koff,[5],6.26e-06 s⁻¹
same,Kd,[6],0.785 nM
same,koff,[6],0.000785 s⁻¹
"murine antibody 22B10 (A6) (antibody, V domains shown, Mouse hybridoma antibody (subclone 22B10-1); Only variable domains printed; also called 22B10-1) VH: QVQLKQSGAELVKPGASVELSCTASGFNIEDTYLHWVNQRPEQGLEWIGRIDPANGNTYYDPKFQGKATITTDTSSNTAYLQLSRLTSEDTAVYYCARGLRLPGFPYWGQGTLVTVSA VL: DIQMTQTPSSLSASLGDRVTISCRASQDISNYLSWYQQKPDGTVKLLIYYTSILHSGVPSRFSGSGSGTDYSLAISNLDQEDIATYFCQQGNTLPWTFGGGTKLEIKR",EC50,[2],0.517 µg/mL
same,IC50,[4],4.31 µg/mL
same,Kd,[5],0.0714 nM
same,koff,[5],4.43e-05 s⁻¹
same,Kd,[6],0.528 nM
same,koff,[6],0.000481 s⁻¹
"murine antibody 28B1 (A5), subclone 28B1-7 (antibody, V domains shown) VH: QVQLKQSGAELVKPGASVMLSCTASAFNIDDTYIHWVKQRPEQGLEWIGRIDPANGNTDYDPECQGKATITTDMSSNTAYLQLSSLTSEDTAVYFCARGLRLPGLVYWGRGTLVTVSA VL: DIQMTQTTSSLSASLGDRVTISCRASQDISNYLNWYQQKPDGTVKLLIYYTSILYSGVPSRFSGSGSGTDYSLTINTLEEEDIATYFCQQGNTLPWTFGGGTKLEIIR",Kd,[5],< 0.001 nM
same,koff,[5],< 1e-07 s⁻¹
same,Kd,[6],0.748 nM
same,koff,[6],0.000723 s⁻¹
